Test [1] addresses T1, Recombinant "core" exomer complex (Chs5 residues 1–77 and Chs6-6xHis) (S. cerevisiae, UniProt Q12114 1-77; P40955 1-746).
T1 construct: Chs5, S. cerevisiae, residues 1–77; Chs6, S. cerevisiae; The end of the 6xHis tag is read from the printed name Chs6-6xHis; also called Chs5(1–77)/Chs6-6xHis exomer complex; purified exomer; source: recombinant, purified as described for the Chs5(1–299)/Chs6-6xHis construct (Paczkowski et al., 2012); not shown: His6, C-terminal, kept
T1 sequence (looked up) 1: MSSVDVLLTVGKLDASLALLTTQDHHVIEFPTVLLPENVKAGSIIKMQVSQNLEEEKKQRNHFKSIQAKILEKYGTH
T1 sequence (looked up) 2: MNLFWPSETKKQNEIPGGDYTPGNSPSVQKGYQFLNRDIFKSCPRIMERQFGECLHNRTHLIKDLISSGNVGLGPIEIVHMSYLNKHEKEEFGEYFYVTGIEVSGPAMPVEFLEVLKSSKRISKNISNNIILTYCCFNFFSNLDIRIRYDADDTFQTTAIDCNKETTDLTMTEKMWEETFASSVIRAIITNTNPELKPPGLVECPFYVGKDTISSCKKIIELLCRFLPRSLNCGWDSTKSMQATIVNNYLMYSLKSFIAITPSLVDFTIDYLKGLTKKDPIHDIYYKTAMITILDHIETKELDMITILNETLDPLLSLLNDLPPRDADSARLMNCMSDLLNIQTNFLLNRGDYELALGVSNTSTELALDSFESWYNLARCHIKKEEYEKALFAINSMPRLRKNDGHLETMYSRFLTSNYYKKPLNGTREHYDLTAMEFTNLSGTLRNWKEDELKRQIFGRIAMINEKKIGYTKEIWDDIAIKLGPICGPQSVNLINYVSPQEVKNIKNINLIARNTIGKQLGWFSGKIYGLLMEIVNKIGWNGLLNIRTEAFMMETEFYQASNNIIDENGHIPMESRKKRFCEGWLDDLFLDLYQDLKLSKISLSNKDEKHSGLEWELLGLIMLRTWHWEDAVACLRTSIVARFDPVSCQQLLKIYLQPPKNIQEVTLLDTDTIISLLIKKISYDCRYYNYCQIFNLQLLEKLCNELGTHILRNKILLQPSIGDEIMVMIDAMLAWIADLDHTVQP
Put plainly: pull-down; GST-Chs3 fragments held on glutathione resin; 10 μl of 5 mg/ml purified exomer added to resin in 500 μl PBS + 1 mM DTT, ~1 h at 4°C, washed 3 times; exomer detected by Western blot with anti-6xHis antibody (by Coomassie staining in Figure 5C). The conditions noted are these: both partners purified. Background: Immunoblotting shows a protein as a band on a membrane.

The next test has as its target T2, Chs6-6xHis (S. cerevisiae, UniProt P40955 1-746).
T2 construct: Chs6, S. cerevisiae; The Chs6 chain of m1, written alone for the pairs that touch in the crystal structure; The end of the tag is read from the printed name; also called His-tagged Chs6; source: recombinant, purified with Chs5(1–77) as described (Paczkowski et al., 2012); not shown: His6, C-terminal, kept
T2 sequence (looked up): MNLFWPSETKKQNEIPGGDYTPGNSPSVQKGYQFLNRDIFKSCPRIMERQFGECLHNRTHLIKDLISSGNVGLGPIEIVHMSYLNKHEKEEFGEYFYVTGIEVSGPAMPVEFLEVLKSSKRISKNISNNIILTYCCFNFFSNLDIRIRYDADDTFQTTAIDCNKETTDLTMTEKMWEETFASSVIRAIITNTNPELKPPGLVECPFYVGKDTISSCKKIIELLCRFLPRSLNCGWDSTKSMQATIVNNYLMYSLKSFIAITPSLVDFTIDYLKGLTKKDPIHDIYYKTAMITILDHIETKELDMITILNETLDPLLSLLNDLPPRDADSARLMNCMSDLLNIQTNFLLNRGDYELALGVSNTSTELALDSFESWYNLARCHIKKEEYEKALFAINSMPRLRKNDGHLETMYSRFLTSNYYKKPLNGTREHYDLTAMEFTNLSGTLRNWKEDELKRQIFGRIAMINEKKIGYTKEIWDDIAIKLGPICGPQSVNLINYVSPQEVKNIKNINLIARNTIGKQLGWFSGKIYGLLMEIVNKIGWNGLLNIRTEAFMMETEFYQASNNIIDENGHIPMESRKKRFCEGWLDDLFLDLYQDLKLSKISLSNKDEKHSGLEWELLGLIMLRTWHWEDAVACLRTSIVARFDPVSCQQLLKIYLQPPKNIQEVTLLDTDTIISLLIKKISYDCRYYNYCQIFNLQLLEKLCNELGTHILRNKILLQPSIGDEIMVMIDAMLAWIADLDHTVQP
Put plainly: crystal structure; Chs5(1–77)/Chs6-6xHis exomer co-crystallised with Chs3 peptide, hanging drop vapor diffusion; 0.3 M ammonium sulfate, 0.1 M citric acid pH 4.0; molar ratio 3.85:1 peptide:exomer. Particulars: both partners purified.

B1: GST-Chs3(1–52) (domain or fragment, S. cerevisiae, UniProt P29465 1-52, looked up)
chain: MTGLNGDDPDDYYLNLNQDEESLLRSRHSVGSGAPHRQGSLVRPERSRLNNP
notes: Chs3 (chitin synthase), S. cerevisiae, residues 1–52; Vector pGEX-2T; the end of GST is read from the printed name GST-Chs3; also called Residues 1–52; wild-type GST-Chs3(1–52) fragment; source: E. coli Rosetta2 (DE3), isolated from cleared lysate on glutathione resin; not shown: GST, N-terminal, kept
Turning to B1, the binding result in test [1] is reported as “binds”.

B2: GST-Chs3 fragment, residues 28–52 (domain or fragment, S. cerevisiae, UniProt P29465 28-52, looked up)
chain: HSVGSGAPHRQGSLVRPERSRLNNP
notes: Chs3 (chitin synthase), S. cerevisiae, residues 28–52; Vector pGEX-2T; the end of GST is read from the printed name GST-Chs3; source: E. coli Rosetta2 (DE3), isolated from cleared lysate on glutathione resin; not shown: GST, N-terminal, kept
Take B2: the binding result in test [1] is reported as “binds”.

B3: GST-Chs3 fragment, residues 1–52 with residues 10–27 deleted (domain or fragment, S. cerevisiae, UniProt P29465 1-52, looked up)
chain: MTGLNGDDPHSVGSGAPHRQGSLVRPERSRLNNP
notes: Chs3 (chitin synthase), S. cerevisiae, residues 1–52 lacking residues 10–27; Vector pGEX-2T; the end of GST is read from the printed name GST-Chs3; source: E. coli Rosetta2 (DE3), isolated from cleared lysate on glutathione resin; not shown: GST, N-terminal, kept
On to B3, for which, in test [1], the binding result is reported as “binds”.

B4: Chs5(1–77) (domain or fragment, S. cerevisiae, UniProt Q12114 1-77, looked up)
chain: MSSVDVLLTVGKLDASLALLTTQDHHVIEFPTVLLPENVKAGSIIKMQVSQNLEEEKKQRNHFKSIQAKILEKYGTH
notes: Chs5, S. cerevisiae, residues 1–77; The Chs5 chain of m1, written alone for the pair that touches in the crystal structure; also called Chs5 residues 1–77; truncated Chs5; source: recombinant, purified with Chs6-6xHis as described (Paczkowski et al., 2012)
Regarding B4, in the test with Chs6-6xHis, the binding result was “binds”.

B5: Chs3 peptide matching residues 10–27 (peptide, UniProt P29465 10-27, looked up)
peptide: DDYYLNLNQDEESLLRSR
notes: Chs3 (chitin synthase), S. cerevisiae, residues 10–27; only residues 12–25 are visible in the structure; also called peptide of Chs3 residues 10–27; source: synthetic peptide (Genscript, 95% purity)
With B5, the binding result in the test with Chs6-6xHis is on record as “binds”.

Source of the values: article PMC4207043, “Distinct N-terminal regions of the exomer secretory vesicle cargo Chs3 regulate its trafficking itinerary” (Frontiers in Cell and Developmental Biology, 2014).
